In article PMC3437550:

Target: Torpedo californica nicotinic acetylcholine receptor (Torpedo californica) (UniProt P02710)
Assay: SEC

Torpedo californica nicotinic acetylcholine receptor (from UniProt P02710 25-461; P02712 25-493; P02714 18-506; P02718 22-522) (complex)
percent dimer: 72.7%
